Experimental data as given in the supplement of paper PMC9112550, “Optimization of the antimicrobial peptide Bac7 by deep mutational scanning” (BMC Biology, 2022).

Test system: Escherichia coli TOP10
Experiment: shrunken log2 fold change of peptide-encoding DNA abundance (4.5 h post-induction vs induction); higher = less antimicrobial activity (less host growth inhibition)
Details: time post-induction: 4.5 h; library: site-saturation at positions 5, 18, 19, 20
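Note: peptides expressed intracellularly from a pBAD plasmid library in pooled LB shake-flask culture, induced with 0.3% L-arabinose, DNA abundance read by NGS, three biological replicates, DESeq2 with apeglm shrinkage.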

Sequence | shrunken log2 fold change
RRIRCRPPRLPRPRPRPDPNPRP | -0.00486
RRIRSRPPRLPRPRPRPDHYPRP | -0.341
RRIRQRPPRLPRPRPRPKWKPRP | -0.0193
RRIRGRPPRLPRPRPRPMCWPRP | 0.859
RRIRRRPPRLPRPRPRPGFCPRP | 0.37
RRIRRRPPRLPRPRPRPEAVPRP | 1.53
RRIRHRPPRLPRPRPRPKPAPRP | 0.0168
RRIRERPPRLPRPRPRPAATPRP | 0.222
RRIRYRPPRLPRPRPRPIYMPRP | -0.22
RRIRWRPPRLPRPRPRPSETPRP | 0.0208
RRIRPRPPRLPRPRPRPDDYPRP | 0.0238
RRIRYRPPRLPRPRPRPNDNPRP | -0.635
RRIRCRPPRLPRPRPRPPDMPRP | -0.000808
RRIRQRPPRLPRPRPRPPMHPRP | 0.277
RRIRMRPPRLPRPRPRPQQNPRP | 0.281
RRIRRRPPRLPRPRPRPLNLPRP | 0.0248
RRIRIRPPRLPRPRPRPFMKPRP | -0.127
RRIRCRPPRLPRPRPRPDMGPRP | -0.406
RRIRIRPPRLPRPRPRPNQLPRP | -0.136
RRIRERPPRLPRPRPRPLCPPRP | -0.393
RRIRGRPPRLPRPRPRPWPYPRP | -0.265
RRIRYRPPRLPRPRPRPGHPPRP | -0.0687
RRIRYRPPRLPRPRPRPDNAPRP | -0.0635
RRIRNRPPRLPRPRPRPRREPRP | 0.38
RRIRTRPPRLPRPRPRPVMKPRP | 0.00771

Sequence | shrunken log2 fold change
RRIRERPPRLPRPRPRPVMIPRP | -0.22
RRIRYRPPRLPRPRPRPMKDPRP | -0.317
RRIRRRPPRLPRPRPRPMYRPRP | 0.0278
RRIRQRPPRLPRPRPRPWMPPRP | -0.167
RRIRARPPRLPRPRPRPHRQPRP | 0.29
RRIRARPPRLPRPRPRPPHCPRP | 0.521
RRIRQRPPRLPRPRPRPDDEPRP | -0.0396
RRIRQRPPRLPRPRPRPRRLPRP | 0.752
RRIRVRPPRLPRPRPRPIKGPRP | -0.155
RRIRCRPPRLPRPRPRPFITPRP | -0.639
RRIRHRPPRLPRPRPRPTDGPRP | -0.0791
RRIRTRPPRLPRPRPRPYKSPRP | -0.118
RRIRQRPPRLPRPRPRPCQSPRP | -0.0019
RRIRPRPPRLPRPRPRPQFRPRP | -0.0113
RRIRRRPPRLPRPRPRPYNRPRP | -0.276
RRIRFRPPRLPRPRPRPVQYPRP | -0.445
RRIRKRPPRLPRPRPRPAKHPRP | 0.0854
RRIRLRPPRLPRPRPRPVLGPRP | 0.192
RRIRFRPPRLPRPRPRPCSKPRP | -0.152
RRIRMRPPRLPRPRPRPDSYPRP | 0.0873
RRIRIRPPRLPRPRPRPEQIPRP | -9e-05
RRIRLRPPRLPRPRPRPFETPRP | -0.241
RRIRMRPPRLPRPRPRPFEHPRP | -0.327
RRIRMRPPRLPRPRPRPQNQPRP | -0.183
RRIRRRPPRLPRPRPRPKKAPRP | -0.00843

Sequence | shrunken log2 fold change
RRIRCRPPRLPRPRPRPMIVPRP | 0.0976
RRIRHRPPRLPRPRPRPLTDPRP | -0.251
RRIRCRPPRLPRPRPRPTSRPRP | -0.0338
RRIRFRPPRLPRPRPRPSRGPRP | 0.485
RRIRSRPPRLPRPRPRPDYFPRP | -0.133
RRIRIRPPRLPRPRPRPQLIPRP | -0.146
RRIRKRPPRLPRPRPRPMRDPRP | 0.0228
RRIRYRPPRLPRPRPRPCWLPRP | 0.0283
RRIRFRPPRLPRPRPRPCNRPRP | -0.111
RRIRWRPPRLPRPRPRPTTYPRP | -0.187
RRIRWRPPRLPRPRPRPSCWPRP | 0.0114
RRIRDRPPRLPRPRPRPTYIPRP | -0.393
RRIRTRPPRLPRPRPRPSWAPRP | 0.195
RRIRRRPPRLPRPRPRPRIRPRP | 0.179
RRIRFRPPRLPRPRPRPDRQPRP | 0.0398
RRIRHRPPRLPRPRPRPDFWPRP | 0.372
RRIRTRPPRLPRPRPRPNNWPRP | -0.12
RRIRERPPRLPRPRPRPVCNPRP | -0.12
RRIRIRPPRLPRPRPRPIPGPRP | -0.191
RRIRHRPPRLPRPRPRPSMIPRP | -0.23
RRIRVRPPRLPRPRPRPDWMPRP | -0.0942
RRIRKRPPRLPRPRPRPRVKPRP | -0.0843
RRIRIRPPRLPRPRPRPDCQPRP | 0.000528
RRIRQRPPRLPRPRPRPKENPRP | 0.168
RRIRLRPPRLPRPRPRPGEIPRP | -0.141

Sequence | shrunken log2 fold change
RRIRWRPPRLPRPRPRPGHDPRP | 0.043
RRIRKRPPRLPRPRPRPLEDPRP | -0.0129
RRIRMRPPRLPRPRPRPVHGPRP | 0.32
RRIRTRPPRLPRPRPRPPDCPRP | 0.0461
RRIRYRPPRLPRPRPRPVAKPRP | -0.128
RRIRQRPPRLPRPRPRPCCMPRP | -0.42
RRIRARPPRLPRPRPRPEHSPRP | 0.244
RRIRARPPRLPRPRPRPFENPRP | 0.166
RRIRRRPPRLPRPRPRPRESPRP | 0.59
RRIRWRPPRLPRPRPRPGWWPRP | 0.336
RRIRGRPPRLPRPRPRPWKSPRP | -0.207
RRIRHRPPRLPRPRPRPFNAPRP | -0.495
RRIRMRPPRLPRPRPRPRSTPRP | 0.888
RRIRNRPPRLPRPRPRPQTWPRP | -0.183
RRIRMRPPRLPRPRPRPYHTPRP | -1.11
RRIRNRPPRLPRPRPRPQMKPRP | -0.281
RRIRMRPPRLPRPRPRPPSFPRP | -0.0206
RRIRTRPPRLPRPRPRPQMWPRP | -0.0505
RRIRMRPPRLPRPRPRPTIQPRP | 0.318
RRIRMRPPRLPRPRPRPFLLPRP | -0.227
RRIRRRPPRLPRPRPRPTVPPRP | 0.0694
RRIRYRPPRLPRPRPRPWFYPRP | -1.48
RRIRWRPPRLPRPRPRPHVDPRP | -0.127
RRIRIRPPRLPRPRPRPYETPRP | -0.0282
RRIRRRPPRLPRPRPRPAQNPRP | 0.398

Sequence | shrunken log2 fold change
RRIRTRPPRLPRPRPRPFTSPRP | -0.0603
RRIRMRPPRLPRPRPRPCGRPRP | 1.09
RRIRVRPPRLPRPRPRPNNYPRP | -0.726
RRIRLRPPRLPRPRPRPADDPRP | -0.088
RRIRVRPPRLPRPRPRPHECPRP | -0.0944
RRIRKRPPRLPRPRPRPWAKPRP | 0.0651
RRIRLRPPRLPRPRPRPTIHPRP | -0.3
RRIRKRPPRLPRPRPRPARAPRP | 0.739
RRIRPRPPRLPRPRPRPCFHPRP | -0.202
RRIRTRPPRLPRPRPRPNHNPRP | -0.914
RRIRPRPPRLPRPRPRPPNWPRP | 0.534
RRIRTRPPRLPRPRPRPMYSPRP | -0.00295
RRIRWRPPRLPRPRPRPTYAPRP | -0.0208
RRIRGRPPRLPRPRPRPQLNPRP | 0.368
RRIRLRPPRLPRPRPRPLTYPRP | -0.448
RRIRHRPPRLPRPRPRPTAWPRP | 0.0946
RRIRQRPPRLPRPRPRPSRQPRP | -0.101
RRIRARPPRLPRPRPRPPWVPRP | 0.254
RRIRTRPPRLPRPRPRPQSMPRP | 0.13
RRIRERPPRLPRPRPRPEQPPRP | -0.064
RRIRMRPPRLPRPRPRPFWNPRP | -0.266
RRIRARPPRLPRPRPRPGVCPRP | 0.571
RRIRNRPPRLPRPRPRPHSWPRP | 0.00366
RRIRTRPPRLPRPRPRPCSPPRP | -0.0356
RRIRIRPPRLPRPRPRPFEGPRP | -0.221

Sequence | shrunken log2 fold change
RRIRHRPPRLPRPRPRPRMQPRP | 0.183
RRIRYRPPRLPRPRPRPNAWPRP | -0.165
RRIRGRPPRLPRPRPRPRHNPRP | 0.0863
RRIRQRPPRLPRPRPRPFPSPRP | -0.0654
RRIRKRPPRLPRPRPRPQNMPRP | -0.521
RRIRFRPPRLPRPRPRPINLPRP | -0.291
RRIRPRPPRLPRPRPRPSWPPRP | 0.359
RRIRNRPPRLPRPRPRPWCVPRP | -0.396
RRIRPRPPRLPRPRPRPDRMPRP | -0.234
RRIRKRPPRLPRPRPRPMYPPRP | 0.00349
RRIRSRPPRLPRPRPRPGTPPRP | 0.0374
RRIRPRPPRLPRPRPRPTNYPRP | -0.542
RRIRIRPPRLPRPRPRPWQYPRP | -0.0758
RRIRARPPRLPRPRPRPHYSPRP | 0.141
RRIRWRPPRLPRPRPRPLCRPRP | 0.17
RRIRDRPPRLPRPRPRPRMTPRP | 0.212
RRIRLRPPRLPRPRPRPPSHPRP | 0.0809
RRIRTRPPRLPRPRPRPSVFPRP | -0.337
RRIRGRPPRLPRPRPRPRNYPRP | 0.00522
RRIRPRPPRLPRPRPRPYCIPRP | -0.654
RRIRVRPPRLPRPRPRPAHVPRP | 0.0119
RRIRMRPPRLPRPRPRPQSEPRP | 0.446
RRIRGRPPRLPRPRPRPNPQPRP | 0.0794
RRIRDRPPRLPRPRPRPINMPRP | 0.00272
RRIRERPPRLPRPRPRPVSHPRP | -0.0904
